For two substances, binding and percent of cells with the GFP signal in the nucleus results are on record in article PMC12482196.

Data set [1] has as its system T1, MBP-YlAaf1 (Yarrowia lipolytica), ORF:dd6ddf17.
T1 sequence: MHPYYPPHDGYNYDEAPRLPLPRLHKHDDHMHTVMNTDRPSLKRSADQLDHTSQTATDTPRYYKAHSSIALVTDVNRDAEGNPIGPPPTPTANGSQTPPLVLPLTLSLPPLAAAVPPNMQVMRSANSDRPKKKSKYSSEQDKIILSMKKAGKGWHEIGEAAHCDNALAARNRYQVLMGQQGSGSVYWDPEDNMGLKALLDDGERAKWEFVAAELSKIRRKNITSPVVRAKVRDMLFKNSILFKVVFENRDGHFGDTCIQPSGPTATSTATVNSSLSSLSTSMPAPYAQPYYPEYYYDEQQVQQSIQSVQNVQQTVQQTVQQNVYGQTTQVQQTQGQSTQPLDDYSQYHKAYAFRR
Nature of the data set: EMSA. The settings on record: 10 mM Tris-HCl pH 7.5, 50 mM NaCl, 0.5 mM EDTA, 1 mM MgCl2, 4% glycerol, 0.5 mM DTT; 300 ng probe, 0-0.5 ug protein in 20 uL; 4% native PAGE in 0.5x TBE at ….

For data set [2], the target named is VC-YlAaf2 (Yarrowia lipolytica). Nature of the data set: split reporter (BiFC, NanoBiT); BiFC with the N-terminal and C-terminal regions of Venus in S. cerevisiae YEF473A, cells grown at 30°C for 16 h in liquid SC-Ura-His medium, fluorescence microscopy, nucleus by DAPI.

For the substance “ACCTCCCTTCGTGGTTTATGACGAAACACGCTTAGCTAAAGTTCTAAAGGCTAATATTACGAACTCTGTGAAAAGGCGAAAAACCACAAAAGGGACGTGTGGTGTTGAAAAGGTGAAAAAGAGAAAACGAAAAGTCTGGCCGAAGTCAAT (double strand) [MHY1 promoter 150-bp probe]”, in data set [1], the binding result was “no binding”.

Consider VN-YlAaf1 (natural protein), for which the percent of cells with the GFP signal in the nucleus in data set [2] is 17 % of cells.
